Measurements as given in the nanobody polyreactivity screen of Harvey et al. (2022).

Assay: yeast display, Sf9 membrane polyspecificity reagent, FACS + sequencing; frameworks hold sequencing errors
Outline: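 After 36–48 hours of galactose induction, yeast (Saccharomyces cerevisiae BJ5465) displaying a synthetic nanobody library were stained at 4 °C for 1 hour with 10% biotinylated, detergent-solubilized Sf9 membrane reagent. Streptavidin microbeads enriched the stained cells before FACS sorting into low and high (top ~1%) gates on anti-HA and streptavidin fluorescence. Each clone's polyreactivity label reflects its gate of origin.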

## QVQLVESGGGLVQAGGSLRLSCAASGFIFFRNAMGWYRQAPGKERELVAAISRSGGITYYADSVKGRFTISRDNAKNTVYLQMNSLKPEDTAVYYCNAAKASREQWTSFDYWGQGTQVTVSS
  polyreactivity (PSR sort gate): high polyreactivity

## QVQLVESGGGLVQAGGSLRLSCAASGGIIDWYVMGWYSQARGKERELVAAISYNGGSTYYADSVKGRFTISRDNAKNTGYLQMNSLKPEDTAVYYCAAAVTWPYRYVWYDYWGQGTQVTVSS
  polyreactivity (PSR sort gate): low polyreactivity

## QVQLVESGGGLVQAGGSLRLSCAASGSIFAVNAMGWYRQAPGKERELVAAITSGGNTYYADSVKGRFTISRDNAKNTVYLQMNSLKPEDTAVYYCATVFSVQGWYFGMNYWGQGTQVTVSS
  polyreactivity (PSR sort gate): low polyreactivity

## QVQLQESGGGLVQAGGSLRLSCAASGTISDRAGMGWYRQAPAKNAIVANIDRGTNTNYADSVKGRFTISRDNAKNTVYLQMNSLKPEDTAVYNCAADGRYYIYLDYWGQGTQVTVSS
  polyreactivity (PSR sort gate): low polyreactivity

## QVQLVESGGGLVQAGGSLRLSCAASGITLYKYTMGWYRQAPGKERELVAAISGGGSTTYADSVKGRFTISRDNAKNTVYLQMNSLKPEDTAVYYCNVPGGKPSYYEEYGYWGQGTQVTVSS
  polyreactivity (PSR sort gate): low polyreactivity

## QVQLVESGGGLVQAGGSLRLSCAASGSTLYTYAMGWYRPAPGKERELVAAIRLSGGRTYYADSVKGRFTISRDNAKNTVYLQMNSLKPEDTAVYYCAVDWSYSRYDYWGQGTQVTVSS
  polyreactivity (PSR sort gate): high polyreactivity

## QVQLVESGGGLVQAGGSLRLSCAASGRIFGSYVMGWYRQAPGKERELVAAISRGGSTYYADSVKGRFTISRDNAKNTVYLQLNSLTPEDTAVYYCAAYSIYGTSYLYTQAFYYWGQGTQVTVSS
  polyreactivity (PSR sort gate): high polyreactivity

## QVQLVESGGGLVQAGGSLRLSCAASGSTFAYYAMGWYRQAPGKERELVAAISWRGGSTYYADSVKGRFTISRDNAKNTVYLLMNILKPEVTAVYYCAAARDRWGNYWGQGTQVTVSS
  polyreactivity (PSR sort gate): high polyreactivity

## QVQLVESGGVLVQAGGSLRISCAASGFIFAYNAMGWYRQAPGKETELVAAISWNGGNTYYADSVKGRFTISRDNAKNTVYLQMNSLKPEDTAVYYCAAIPKPFRSYGYWGKGTQVTVSS
  polyreactivity (PSR sort gate): high polyreactivity

## QVQLVESGGGLVQAGGTLRLSCAASGFTFAVYAMGWYRQAPGKERELVAAISRSGTRTYYADSVKGRFTISRDNSKNPVYIQMNSLKPEDTAVYYCAADKYRNGYDYWGQGTQVTVSS
  polyreactivity (PSR sort gate): low polyreactivity

## QVQLVESGGGLVQAGGSLRLSCAASGRILKRYAMGWYRQAPGKERELVAAINWSGGSTYYADSVKGRFTISRDNAKNTVYLQMTSLKPEDTAVYYCAADSWPFGYYYWGQGTQVTVSS
  polyreactivity (PSR sort gate): high polyreactivity

## QVQLVESGGGLVQAGGSHRLSFAASGSIFTRYAMGWYRPAHGKEREFVAGISWTGGSTYYADSVKGRFTISRDIAKNTVYLQMYRLKPEDTGVYYCAAGYWYSAFSGWWDYSDLYYWGQGTQVTVSS
  polyreactivity (PSR sort gate): high polyreactivity

## QVQLVESGGGLVQAGGSLRLSCAASGSTIGFYTMGWYRQAPGKERELVATISYSGGDTYYADSVKGRFTISRDNAKNTVYLQMNSLKPEDTAVYYCAADLGDYVTTYSWLDSWGQGTQVTVSS
  polyreactivity (PSR sort gate): low polyreactivity

## QVQLVESGGGLLQAGGSLRLSCADSGYTFRAYALGWYRQAPGKERELVAAISRGGSTNYADSVKGRFTISRDNAKNTVYLQMYSLKPEDTAVYYCNTAYIVWYSSSYGAYYSGAFDYWGQGTLVTVSS
  polyreactivity (PSR sort gate): high polyreactivity

## QVQLVESGGGLVQAGGSLRLSCAASGSTFWSYAMGWYRQAPGKERELVADIRWSGDGTYYADSVKGRFTISRDNAKITVYLQMNSLKPEDTAVYYCAADYFPVNSYGYWGQGTQVTVSS
  polyreactivity (PSR sort gate): low polyreactivity

## QVQLVESGGGLVQAAGSLRLSCAASGRISRTNAMGWYRQAPGKERQLVATINSGTGTNYADSVKGRFTISRDNAKNTVYLQMNSLKPEDTEVYYCAARYRYWPKYYPVSYRYDYWGQGTQVTVSS
  polyreactivity (PSR sort gate): low polyreactivity

## QVQLEESGGGLVQAGGSLRLSCAASGSIFYSYAMGWYRQAPGNERELVAAITRGGSTYYADSVKGRFTISRDNAKNTVYLQMNSLKPEDTAVYYCAADSQYGWPEYEYDYWGQGTQVTVSS
  polyreactivity (PSR sort gate): low polyreactivity

## QVQLVESGGGLVQAGGSLRLSCAASGFIFADYTMGWSRQAPGQERELVAVITSGGSTHYADSVKGRFTISRDNAKNTVYLQMNSLKPEDTAVYYCAARSYRPTRGDYWGQGTKVTVSS
  polyreactivity (PSR sort gate): high polyreactivity

## QVQLVESGGGLVQAGGILRLSCAPSGLILKYYAMGWYRQAPGKEREFVAAITRRGGITYYADSVKGRFTISRDNAKNTVYLQMNSLKPEDTAVYYCAADPKLGSLAYWRYSYPLYDYWGQGTQVTVSS
  polyreactivity (PSR sort gate): low polyreactivity

## QVQLVESGGGLVQAGGSLRLSCAASGSIFWVYAMGWYRQAPGKERELVAAISQSGGSTYYADSVKGRFTISRDNAKNTVYLQMNSLKPEYTAVYYCAAYVRGQNYDYWGQGTQVTVSS
  polyreactivity (PSR sort gate): high polyreactivity

## QVQLVESVGGLVQAGGSLRLSCAASGRMFAKYAMGWYRQAPGKERELVPISSSVGRTYYADSVKGRFTISRDNAKNTVSLHMHSLKPEDTAVYYCNAKPRWYVPYDYSGQGTQVTVSS
  polyreactivity (PSR sort gate): high polyreactivity

## QFQLVESGGGLVQAGGSLRLSCAASGRIFGDNAMGWYRQAPGKERELVADIDSGGRTNYADSVKGRFTISRDNAKNTVYLQMNSLKPEDTAVYYCARDDIAYLVEYDYWGQGTQVTVSS
  polyreactivity (PSR sort gate): low polyreactivity

## QVQLVESGGGLVQAGGSLGLSCAASGRTFYRNAMGWYRQAPGIERELVAPITNGGRTYYADSVKGRFTISRDNAKNTVNLQMNSLKPEDTAVYYCNALDAKLSEYEYWGQGTEVTVSS
  polyreactivity (PSR sort gate): low polyreactivity

## QFQLVESGGGIVQAGGSLRLSCAASGRTIYQYAMGWYRESPANERELVAAISRSGTSTYYADSVKGRFTISRDNAKNTVYLQMNSLKPEDTAVYFCAARYVSKYNYPSPEMYYWGQGTKVTVSS
  polyreactivity (PSR sort gate): high polyreactivity

## QVQLVESGGGLVQAGGSLRLSCAASGFIFASYAMGWYRQAPGKERELVAAISSSGGRTYYADSVKGRFTISRDNAKNTVYLQMNSLKPEDTAVYYCAAPRIYIPAEYYSWGQGTQVTVSS
  polyreactivity (PSR sort gate): high polyreactivity

## QVQLVESGGVLVQAGGSLRLSCAASGIIFRSNVMGWYRQAPGKERELVAAISTGGGRTYYADSVKGRFTISRDNAKNTVYLQMNILKPEDTAVYYCAAETTPYQPDGFDEYYYWGQGTQVTVSS
  polyreactivity (PSR sort gate): high polyreactivity

## QVQLVESGGGLVQAGGSLRLSCAASGIIFRRYAMGWYRQGPGKERELVAAITHRGSTYYADSVKGRFTISRDNAKNTVYLQMNSLKPEDTAVYYCAADGFTRWGRYDYWGQGTQVTVSS
  polyreactivity (PSR sort gate): high polyreactivity

## QVQLVESGGGLVQAGGSLRLSCAASGFTFHYYGMGWYRQAPGKERELVAAINWSGSSTYYADSVKGRFTISRDNATNTVYLQMNSLKPEDSAVYYCAAEKRKLFQGVARYRYEYWGQGTQVTVSS
  polyreactivity (PSR sort gate): low polyreactivity

## QVQLVESGGGLVQAGGSLRLSCAASGIIFFWNAMGWYRQAPGKERELVAAISSGGSTYADSVKGRFTISRDNAKNTVYLQMNSLKPEDTAVYYCAARFYHGYRPYSAIYGYGYWGQGTQVTVSS
  polyreactivity (PSR sort gate): low polyreactivity

## QVQLEESGGGLVQAGGSLRISCAASGLIFRTNAIGWYRQAPGKERELVAAISWSTGSTYYADSVKGRFTISRDNAKNTVYLQMNSLKPEDTAVYYCARTLRWTYRYGYWGQGTQVTVSS
  polyreactivity (PSR sort gate): high polyreactivity

## QVQLVESGGGLVQAGGSLRLSCAASGLTFYYNTMGWYRQAPGKERELVAAINWSGGRTYYADSVKGRFTISRDNAKNTVYLQMNSLKPEDTAVYYCNAASSRALGYAYDYWGQGTQVTVSS
  polyreactivity (PSR sort gate): high polyreactivity

## QVQLVESGGGLDQAGGSLRLICAASGRTYDTNAMGWYRQAPGKEREFVAAINTGGNTYYADSVKGRFTISRDNAKNTVYLQMNSLIPEDTAVYYSAAYYYYFYHKVIWYELDYWGQGTQVTLSS
  polyreactivity (PSR sort gate): low polyreactivity

## QVQLVESGGGLVQAGGSLRLICAASGRIFVPYAMGWYRQAPGKERELVAAITYDGGSTYYADSVKGRFTISRDNAKNTVYLQMNSLKPEDTAVYYCAADYGYSQYILGQFRLEELDYWGQGTQVTVSS
  polyreactivity (PSR sort gate): low polyreactivity

## QVQLQESGGGLVQAGGSLCMSCAASGSISDYIFMGWYRQAPGKEREFVAGIGIGGNTNYADSVKGRFTISRDNAKNTVYLQMNSLKPEDTAVYYCAANATYTDYYAYWGQGTQVTVSS
  polyreactivity (PSR sort gate): low polyreactivity

## QVQLVESGGGLVQAGGSLRLSCAASGSTFKPYPMGWYRQAPGKERELVADITGGGSTNYADSVKGRFTNSRDNAKNTVYLEMNSLKPEDTGVYYCNATYLLKYRYYDSTRYDYWGQGTQVTVSS
  polyreactivity (PSR sort gate): low polyreactivity

## QVQLVESGGGLVQAGGSLRLSCAASGRIFRYYAMGWYRQAPGKERELVAGISRSGGRTYYADSVKGRFTISRDNAKNTVYLQMNSLKPEDTAVYYCNASRGYPYHYDYWGQGTQVTVSS
  polyreactivity (PSR sort gate): high polyreactivity

## QVQLVESAGGLVQAGGSLRLSFAASGSIFYSYAMGSYRKAAGKDRELVADITSSGGSTYYADSVKGRFTISRDNAKNTDYLQMNSLKREDTAVYYCAASSPAFYGLRYNYWGQGTQVTVSS
  polyreactivity (PSR sort gate): low polyreactivity

## QVQLQESGGGLVLAGGSLRLSCAESGYISWSFTMGWYRKAPGKEREFVAGITYGGITYYADSVKGRFTISRDNAKNTVYLQMNSLKPEDTAVYYCAAPQTYPYVYVYWGQGTQVTVSS
  polyreactivity (PSR sort gate): high polyreactivity

## QVQLVESGGGLVQAGGSLRLSCAASGSIFPYYTMGWYRQAPGKERELVAAITTSDSSTYYADSVKGRFTISRDNAKNTVYLQMNSLKPEDTAVYYCAARYSLYPYYAYDDAYRLYRLRGRDYWGQGTQVTVSS
  polyreactivity (PSR sort gate): low polyreactivity

## QVQLVESGGGLVQAGGSLRLSCAASGRIFSYNAMGWYRQAPGKERELVAAISYRGGSTYYADSVKGRFTISRDNAKNTVYLQMNSLNPEDTAVYYCNAEAYYPYGYDYWGQGTQVTVSS
  polyreactivity (PSR sort gate): low polyreactivity

## QVQLVESGGGLVQAGGSLRLSCAASGIIFYYNAMGWYRQAPGKERELVAAINDSGNTYYADSVKGRFTISRDNAKNTVYFQMNSLKPEDTAVYYCAADVWKYWGYDYWGQGTQVTVSS
  polyreactivity (PSR sort gate): low polyreactivity

## QVQLVESGGALLQAGGSLRLSCAASGFIFRYYAMGWYRQAPGKERELVAAISESGASTYYADSVKGRFTISRDNAKNSVYLQMNSLKPEVTAVYYCAAKPRNSGPYYFYDLNYWGQGTQVTVSS
  polyreactivity (PSR sort gate): high polyreactivity

## QVQLVESGGGIVQAGGSLSLSCAASGFNFGIYAMGWYRQAPGKEREFVAAITGSAGSTYYADSVKGRFTISLDNAKNTVYLQMNSLKPEDTAVYYCAAVLRTHRYGGYNYWGQGTQVTVSS
  polyreactivity (PSR sort gate): low polyreactivity
